# Test results reported in publication PMC8319846 (Frontiers in Microbiology, 2021).
# Legend:
# Hlb = Hlb (Staphylococcus aureus, strain , UniProt P09978); test: ELISA; conditions: both partners purified
# HlgA = HlgA (Staphylococcus aureus, strain , UniProt P0A074); test: ELISA; conditions: both partners purified
# HlgB = HlgB (Staphylococcus aureus, strain , UniProt P0A077); test: ELISA; conditions: both partners purified
# HlgC = HlgC (Staphylococcus aureus, strain , UniProt Q07227); test: ELISA; conditions: both partners purified
# Chain of HlgC (Q07227 30-315): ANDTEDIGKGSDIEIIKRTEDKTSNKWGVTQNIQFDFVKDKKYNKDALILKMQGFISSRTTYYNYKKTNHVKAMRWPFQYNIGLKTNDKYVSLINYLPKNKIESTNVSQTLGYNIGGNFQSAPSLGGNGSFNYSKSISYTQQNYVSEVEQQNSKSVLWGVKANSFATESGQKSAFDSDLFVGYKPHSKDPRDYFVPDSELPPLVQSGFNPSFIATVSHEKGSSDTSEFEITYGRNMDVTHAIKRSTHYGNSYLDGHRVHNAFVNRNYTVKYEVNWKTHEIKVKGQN
# LukD = LukD (Staphylococcus aureus, strain , UniProt O54082); test: ELISA; conditions: both partners purified
# Chain of LukD (O54082 27-327): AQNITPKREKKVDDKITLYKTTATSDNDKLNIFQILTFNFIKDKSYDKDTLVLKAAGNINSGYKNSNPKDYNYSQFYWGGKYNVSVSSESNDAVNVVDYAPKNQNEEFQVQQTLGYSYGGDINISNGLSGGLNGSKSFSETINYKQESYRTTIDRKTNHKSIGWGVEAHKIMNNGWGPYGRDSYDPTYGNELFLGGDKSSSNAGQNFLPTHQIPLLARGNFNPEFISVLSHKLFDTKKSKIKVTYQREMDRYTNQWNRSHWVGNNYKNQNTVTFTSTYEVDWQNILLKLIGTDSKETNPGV
# LukE = LukE (Staphylococcus aureus, strain , UniProt O54081); test: ELISA; conditions: both partners purified
# Chain of LukE (O54081 29-314): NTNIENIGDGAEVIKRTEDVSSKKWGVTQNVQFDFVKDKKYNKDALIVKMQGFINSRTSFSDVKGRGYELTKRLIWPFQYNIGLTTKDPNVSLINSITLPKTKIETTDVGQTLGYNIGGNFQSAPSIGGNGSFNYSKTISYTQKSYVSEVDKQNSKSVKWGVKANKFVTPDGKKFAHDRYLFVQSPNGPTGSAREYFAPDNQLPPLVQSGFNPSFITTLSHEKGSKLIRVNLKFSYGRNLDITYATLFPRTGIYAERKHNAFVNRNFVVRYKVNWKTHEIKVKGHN
# LukF = LukF (Staphylococcus aureus, strain , UniProt Q5FBD2); test: ELISA; conditions: both partners purified
# Chain of LukF (P31715 26-323): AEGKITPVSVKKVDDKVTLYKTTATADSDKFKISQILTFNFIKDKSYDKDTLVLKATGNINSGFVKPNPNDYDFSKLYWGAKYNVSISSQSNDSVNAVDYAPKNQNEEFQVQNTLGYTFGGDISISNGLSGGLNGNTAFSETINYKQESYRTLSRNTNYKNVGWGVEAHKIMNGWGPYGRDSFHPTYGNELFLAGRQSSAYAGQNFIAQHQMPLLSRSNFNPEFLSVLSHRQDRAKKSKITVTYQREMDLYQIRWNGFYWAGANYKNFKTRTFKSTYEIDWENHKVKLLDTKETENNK
# [1] = biological target: native Hla in S. aureus 8325-4 supernatants (Staphylococcus aureus 8325-4 (NCTC 8325 …, UniProt Q2G1X0)); test: far-Western, overlay or dot blot; conditions: one partner purified
# Chain of native Hla in S. aureus 8325-4 supernatants (Staphylococcus aureus 8325-4 (Q2G1X0 27-319): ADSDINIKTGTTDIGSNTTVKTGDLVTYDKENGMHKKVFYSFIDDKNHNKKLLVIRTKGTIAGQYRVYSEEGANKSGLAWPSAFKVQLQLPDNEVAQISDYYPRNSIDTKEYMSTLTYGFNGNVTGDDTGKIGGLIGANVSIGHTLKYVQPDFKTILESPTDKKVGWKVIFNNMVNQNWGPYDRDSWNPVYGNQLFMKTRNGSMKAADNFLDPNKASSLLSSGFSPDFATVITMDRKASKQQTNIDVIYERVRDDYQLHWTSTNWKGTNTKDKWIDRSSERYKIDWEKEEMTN
# Chain of Hlb (P09978 35-330): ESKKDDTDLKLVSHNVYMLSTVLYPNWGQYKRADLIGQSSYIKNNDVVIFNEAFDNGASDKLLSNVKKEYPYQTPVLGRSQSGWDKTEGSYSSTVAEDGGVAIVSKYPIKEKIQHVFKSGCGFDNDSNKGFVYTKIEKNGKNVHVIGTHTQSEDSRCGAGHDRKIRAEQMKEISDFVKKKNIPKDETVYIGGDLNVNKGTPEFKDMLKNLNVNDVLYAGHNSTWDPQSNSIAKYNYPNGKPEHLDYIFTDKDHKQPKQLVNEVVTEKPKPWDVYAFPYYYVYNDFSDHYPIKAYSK
# Chain of HlgB (P0A077 26-325): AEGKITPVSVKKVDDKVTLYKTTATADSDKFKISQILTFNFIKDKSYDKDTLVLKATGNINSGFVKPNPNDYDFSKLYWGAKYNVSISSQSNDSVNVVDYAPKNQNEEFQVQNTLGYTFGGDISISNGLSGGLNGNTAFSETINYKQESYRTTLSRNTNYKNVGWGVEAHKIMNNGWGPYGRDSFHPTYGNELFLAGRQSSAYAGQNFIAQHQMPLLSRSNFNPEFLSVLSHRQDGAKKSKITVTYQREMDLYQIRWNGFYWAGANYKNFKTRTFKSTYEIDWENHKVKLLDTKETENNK
# Chain of HlgA (P0A074 30-309): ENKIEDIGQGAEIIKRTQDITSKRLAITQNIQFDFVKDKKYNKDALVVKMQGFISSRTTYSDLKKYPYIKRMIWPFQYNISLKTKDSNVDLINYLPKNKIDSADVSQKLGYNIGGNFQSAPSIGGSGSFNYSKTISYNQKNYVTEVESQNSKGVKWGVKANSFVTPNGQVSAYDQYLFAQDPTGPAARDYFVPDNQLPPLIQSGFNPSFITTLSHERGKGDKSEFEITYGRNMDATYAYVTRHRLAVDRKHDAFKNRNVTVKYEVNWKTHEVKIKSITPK
binder,measurement,setting,value
"YG1 human anti-Hla monoclonal antibody (antibody, V domains shown, also called YG1 mAb; source: expressed and purified as a full-length human IgG1 antibody) VH: QVQLVQSGAEMQKPGASVKVSCKVTGYALASLSLHWVRQTPGAGLEWLGGLDPGHGETIYAEKLQGRVVMTGDTSTDTAYMQLSSLTSEDTAIYYCASDWLRHGFEFWGQGTTVTVSS VL: EIVLTQSPATLSVSPGDGATLSCRASQSVSGNLAWYQKKPGQAPRLLIYDTSIRAAGVPPRFSGSGSGTEFTLTISSLQSEDFAVYYCQQYHNLPPLTFGPGTKLEIK",binding result,Hlb,no binding (tested: 1 μg/ml)
same,binding result,HlgA,no binding (tested: 1 μg/ml)
same,binding result,HlgB,no binding (tested: 1 μg/ml)
same,binding result,HlgC,no binding (tested: 1 μg/ml)
same,binding result,LukD,no binding (tested: 1 μg/ml)
same,binding result,LukE,no binding (tested: 1 μg/ml)
same,binding result,LukF,no binding (tested: 1 μg/ml)
same,binding result,[1],binds
